From patent US20150065381A1
Where “and” joins values, the source holds several entries; their conditions need not be identical. Identical values can stand only once.

What was measured:
[1] = target: HIV-1 envelope of gp160 clone B-Acute-008.c11 (HIV-1); assay: cell-based or functional assay
[2] = target: HIV-1 envelope clone G-011.c02 (multiclade gp160 clone panel) (HIV-1); assay: capture ELISA, original data
[3] = target: HIV-1 envelope clone G-011.c05 (multiclade gp160 clone panel) (HIV-1); assay: capture ELISA, original data
[4] = target: HIV-1 envelope of gp160 clone AG-010.c11 (HIV-1); assay: capture ELISA, original data
[5] = target: HIV-1 envelope of gp160 clone AG-010.c14 (HIV-1); assay: capture ELISA, original data
[6] = target: HIV-1 envelope of gp160 clone B-Acute-008.c11 (HIV-1); assay: capture ELISA, original data
[7] = target: HIV-1 envelope of gp160 clone B-Acute-010.c08 (HIV-1); assay: capture ELISA, original data
[8] = target: HIV-1 envelope of gp160 clone B-Acute-010.c09 (HIV-1); assay: capture ELISA, original data
[9] = target: HIV-1 envelope of gp160 clone B-Chronic-014.c02 (HIV-1); assay: capture ELISA, original data
[10] = target: 16055 envelope (gp120 monomer released from lysed pseudovirus) (HIV-1); assay: antigen capture ELISA, mAb 0.3 ug/ml, plate 1
[11] = target: JRFL envelope (gp120 monomer released from lysed pseudovirus) (HIV-1) (UniProt P20871); assay: antigen capture ELISA, mAb 0.3 ug/ml, plate 1
[12] = target: 16055 envelope (gp120 monomer released from lysed pseudovirus) (HIV-1); assay: antigen capture ELISA, mAb 0.3 ug/ml, plate 2
[13] = target: JRFL envelope (gp120 monomer released from lysed pseudovirus) (HIV-1) (UniProt P20871); assay: antigen capture ELISA, mAb 0.3 ug/ml, plate 2
[14] = target: 16055 envelope (gp120 monomer released from lysed pseudovirus) (HIV-1); assay: antigen capture ELISA, mAb 0.8 ug/ml, plate 1
[15] = target: JRFL envelope (gp120 monomer released from lysed pseudovirus) (HIV-1) (UniProt P20871); assay: antigen capture ELISA, mAb 0.8 ug/ml, plate 1
[16] = target: 16055 envelope (gp120 monomer released from lysed pseudovirus) (HIV-1); assay: antigen capture ELISA, mAb 0.8 ug/ml, plate 2
[17] = target: JRFL envelope (gp120 monomer released from lysed pseudovirus) (HIV-1) (UniProt P20871); assay: antigen capture ELISA, mAb 0.8 ug/ml, plate 2
[18] = target: 16055 envelope (gp120 monomer released from lysed pseudovirus) (HIV-1); assay: antigen capture ELISA, mAb 2.5 ug/ml, plate 2
[19] = target: JRFL envelope (gp120 monomer released from lysed pseudovirus) (HIV-1) (UniProt P20871); assay: antigen capture ELISA, mAb 2.5 ug/ml, plate 2
[20] = target: 16055 envelope (gp120 monomer released from lysed pseudovirus) (HIV-1); assay: antigen capture ELISA, mAb 7.5 ug/ml, plate 2
[21] = target: JRFL envelope (gp120 monomer released from lysed pseudovirus) (HIV-1) (UniProt P20871); assay: antigen capture ELISA, mAb 7.5 ug/ml, plate 2
[22] = target: HIV-1 envelope of gp160 clone B-Acute-009-c08 (HIV-1); assay: capture ELISA, original data
[23] = target: 16055 envelope (gp120 monomer released from lysed pseudovirus) (HIV-1); assay: antigen capture ELISA, mAb 2.5 ug/ml, plate 1
[24] = target: JRFL envelope (gp120 monomer released from lysed pseudovirus) (HIV-1) (UniProt P20871); assay: antigen capture ELISA, mAb 2.5 ug/ml, plate 1
[25] = target: 16055 envelope (gp120 monomer released from lysed pseudovirus) (HIV-1); assay: antigen capture ELISA, mAb 7.5 ug/ml, plate 1
[26] = target: JRFL envelope (gp120 monomer released from lysed pseudovirus) (HIV-1) (UniProt P20871); assay: antigen capture ELISA, mAb 7.5 ug/ml, plate 1

PG9 (antibody)
PG9 IC50 [1]: 0.396 µg/mL | ELISA OD (original data) [2]: 0.068 OD | ELISA OD (original data) [3]: 1.25 OD | ELISA OD [4]: 1.06 OD | ELISA OD [5]: 3.69 OD | ELISA OD [6]: 0.75 OD | ELISA OD [7]: 0.547 OD | ELISA OD [8]: 0.685 OD | ELISA OD [9]: 2.42 OD

PG16 (antibody)
PG16 [1]: 5.3 µg/mL | ELISA OD [10]: 0.101 OD and 0.122 OD | ELISA OD [11]: 0.063 OD and 0.097 OD | ELISA OD [12]: 0.107 OD and 0.112 OD | ELISA OD [13]: 0.065 OD and 0.075 OD | ELISA OD [14]: 0.129 OD and 0.11 OD | ELISA OD [15]: 0.064 OD and 0.071 OD | ELISA OD [16]: 0.156 OD and 0.105 OD | ELISA OD [17]: 0.063 OD and 0.061 OD | ELISA OD [18]: 0.195 OD and 0.122 OD | ELISA OD [19]: 0.081 OD and 0.096 OD | ELISA OD [20]: 0.155 OD and 0.143 OD | ELISA OD [21]: 0.111 OD and 0.136 OD

PGT145 (antibody)
PGT145 IC50 [1]: 8.2 µg/mL | ELISA OD (original data) [2]: 0.077 OD | ELISA OD (original data) [3]: 0.301 OD | ELISA OD [4]: 0.101 OD | ELISA OD [5]: 0.081 OD | ELISA OD [6]: 0.178 OD | ELISA OD [22]: 0.219 OD | ELISA OD [7]: 0.211 OD | ELISA OD [8]: 0.075 OD | ELISA OD [9]: 0.077 OD

PGT151 (antibody)
ELISA OD (original data) [2]: 0.086 OD | ELISA OD (original data) [3]: 0.145 OD | ELISA OD [4]: 0.119 OD | ELISA OD [5]: 0.522 OD | ELISA OD [6]: 0.321 OD | ELISA OD [22]: 0.264 OD | ELISA OD [7]: 0.211 OD | ELISA OD [8]: 0.092 OD | ELISA OD [9]: 0.247 OD

PGV04 (antibody)
ELISA OD [10]: 0.054 OD and 0.065 OD | ELISA OD [11]: 0.344 OD and 0.34 OD | ELISA OD [12]: 0.079 OD and 0.122 OD | ELISA OD [13]: 0.395 OD and 0.44 OD | ELISA OD [14]: 0.055 OD and 0.059 OD | ELISA OD [15]: 0.673 OD and 0.722 OD | ELISA OD [16]: 0.073 OD and 0.071 OD | ELISA OD [17]: 0.796 OD and 0.763 OD | ELISA OD [23]: 0.066 OD and 0.071 OD | ELISA OD [24]: 1.17 OD and 1.25 OD | ELISA OD [18]: 0.126 OD and 0.095 OD | ELISA OD [19]: 1.55 OD and 1.51 OD | ELISA OD [25]: 0.071 OD and 0.068 OD | ELISA OD [26]: 1.94 OD and 1.84 OD | ELISA OD [20]: 0.108 OD and 0.113 OD | ELISA OD [21]: 2.49 OD and 2.36 OD
